Reference: patent US20220169714A1 (published 2022)

T1: recombinant human CXCL1 protein (human, UniProt P09341 35-107)
T1 sequence: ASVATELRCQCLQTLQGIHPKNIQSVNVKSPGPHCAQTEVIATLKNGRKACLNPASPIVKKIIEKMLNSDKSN

T2: mouse CXCL1 (mouse, UniProt P12850 25-96, limits assumed)
T2 sequence (looked up): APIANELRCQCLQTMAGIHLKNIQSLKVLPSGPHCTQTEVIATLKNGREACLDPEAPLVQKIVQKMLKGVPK

T3: rat CXCL1 (rat, UniProt P14095 25-96, limits assumed)
T3 sequence (looked up): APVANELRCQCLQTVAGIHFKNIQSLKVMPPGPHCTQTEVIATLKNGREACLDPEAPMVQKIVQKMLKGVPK


Tests used:
[1] = target: T1, recombinant human CXCL1 protein; experiment: ELISA on coated human CXCL1 against coated BSA, scFv at 10 and 2 ug/mL, anti-Myc HRP, TMB
Experimental: The human CxCL1 protein was coated onto 96-well, 30 ng for well at 4° C. overnight. The plate was blocked by 3% skim milk in PBS 2 h at room temperature. The plate was washed 3 times with PBST and applied anti-human CXCL1 humanized version scFv antibodies at different dilution concentration. The anti-Myc mouse monoclonal antibody with HRP conjugate antibody was applied and developed with TMB solution.

[2] = target: T2, mouse CXCL1; experiment: Western blot: recombinant CXCL1 loaded at 10, 20 and 30 ng, probed with HL2401
[3] = target: T3, rat CXCL1; experiment: as above
[4] = target: T1, recombinant human CXCL1 protein; experiment: apparent affinity-binding constant, in PBS; method not stated (FIG. 1B); in PBS
[5] = target: T1, recombinant human CXCL1 protein; experiment: apparent affinity-binding constant, in serum 1:40 dilution; method not stated (FIG. 1B); serum, 1:40 dilution
[6] = target: T1, recombinant human CXCL1 protein; experiment: apparent affinity-binding constant, in serum 1:4 dilution; method not stated (FIG. 1B); serum, 1:4 dilution

Binder | binding result [1] | binding result [2] | binding result [3] | Kd [4] [µg/mL] | Kd [5] [µg/mL] | Kd [6] [µg/mL]
HUM2401-ScFv_1 (humanized version 2) (scFv, Detected through a c-Myc tag; also called HumH2401scFv; Hum HL2401_scFv) scFv: QVQLVESGGGLVQPGGSLRLSCKASGYTFTSYYIYWVRQAPGKGLEWIGEIDPSHGGPTFNEKFKNRFTISRDNSKNTLYLQMNSLRAEDTAVYYCTRESGTGAMDYWGQGTLVTVSSGGGGSGGGGSGGGARGGGGSDIQMTQSPSSLSASVGDRATISCKASQSVDYDGDSYVNWYQQKPGKAPKLLIYAASNLESGIPSRFSGSGSGTDFTLTISSLQPEDFATYYCQQSSEDPWTFGQGTKVEIKR | binds | – | – | – | – | –
anti-CXCL1 neutralizing monoclonal mouse antibody (HL2401) (antibody, V domains shown, Mouse IgG from hybridoma clone HL2401, purified on protein G; also called CXCL1 mAb (HL2401); CXCL1 monoclonal antibody (HL2401)) VH: EVKLVESGAELVKPGASVKLSCKASGYTFTSYYIYWVKQRPGQGLEWIGEIDPSHGGPTFNEKFKNKATLTVDKSSSTAYMQLSSLTSDDSAVYYCTRESGTGAMDYWGQGTTLTVSS VL: DIVLTQSPASLAVSLGQRATISCKASQSVDYDGDSYVNWYQQKPGQPPKLLIYAASNLESRIPARFSGSGSGTDFTLNILPVEEDDGATYYCQQSSEDPWTFGGGTKLEIKR | – | no binding (tested: 30 ng) | no binding (tested: 30 ng) | 0.176 | 0.252 | 0.387
